Kd data for one molecule are collected here from paper PMC5117717 (2016).

The target in one experiment is HumRadA33 (Pyrococcus furiosus, UniProt O74036 108-349, S167K | V168A | I169M | W170Y | N175G | I182L | R183L | D192S | P193G | D194S | …). In words: ITC. (Isothermal titration calorimetry measures the heat released or taken up as one component is titrated into another.)
A further experiment addresses RadA-ct (Pyrococcus furiosus). In words: ITC.

B1: RadA oligomerisation peptide (peptide)
peptide: Ac-NLGTFMRADEYLKKRA-NH2
Broadly, the Kd is the free concentration of one partner at which half of the binding sites on the other are occupied at equilibrium, for simple one-to-one binding. A low value points to tighter binding. For the molecule B1, the Kd amounted to 13 µM with HumRadA33 and 0.6 µM in the experiment with RadA-ct.
